# Measurements as given in US20230037815A1.
# Molecular target: human CD19 on KILR Raji cells (UniProt P15391)
# Experiment: cell-based or functional assay
# Chain of human CD19 on KILR Raji cells (P15391 20-556 limits assumed): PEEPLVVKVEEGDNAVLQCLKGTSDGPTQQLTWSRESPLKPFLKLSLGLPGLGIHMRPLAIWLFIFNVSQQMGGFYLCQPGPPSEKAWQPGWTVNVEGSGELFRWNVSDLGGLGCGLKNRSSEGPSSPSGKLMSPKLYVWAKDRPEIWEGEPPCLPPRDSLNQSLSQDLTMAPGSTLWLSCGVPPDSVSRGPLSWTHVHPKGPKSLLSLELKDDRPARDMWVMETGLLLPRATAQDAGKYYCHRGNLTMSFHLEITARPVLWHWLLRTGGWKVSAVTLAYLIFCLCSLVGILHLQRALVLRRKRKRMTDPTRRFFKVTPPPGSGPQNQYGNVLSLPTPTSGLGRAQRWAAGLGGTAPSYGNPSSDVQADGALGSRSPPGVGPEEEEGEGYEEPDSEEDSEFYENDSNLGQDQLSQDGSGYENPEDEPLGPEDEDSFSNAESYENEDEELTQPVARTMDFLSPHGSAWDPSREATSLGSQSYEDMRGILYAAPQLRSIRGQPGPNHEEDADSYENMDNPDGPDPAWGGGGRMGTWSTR
substance,measurement,value
blinatumomab (bispecific antibody),"EC50 (pg/mL) of T cell-redirected killing of KILR Raji cells, +HSA",10800 pg/mL
same,"EC50 (pg/mL) of T cell-redirected killing of KILR Raji cells, -HSA",2850 pg/mL
